According to US9395368B2, “Methods, agents and peptides for inducing an immune response to matrix metalloproteinase-2 expressing tumors” (New York University, priority 2010, dated 2016):

Assays:
[1] = system: CD40, CD80, CD83, CD86, HLA-DR and CCR7 on DCs; assay: Expression of maturation markers by DCs; type: cell-based, human
Experimental: Antibodies. Allophycocyanin-conjugated antibody to CCR-7 (150503) was purchased from R&D Systems. Unconjugated (10 μg/mL for blocking experiments) or phycoerythrin-conjugated antibody to OX40L (11C3.1) was from Biolegend. Blocking antibody to IL-4 (8F12; 10 μg/mL) was from Acris. Antibodies to human Vβ chains covering 70% of the repertoire (10Test Beta Mark; Beckman Coulter) were used according to the manufacturer's instructions. Fluorescein isothiocyanate-conjugated antibody to IL-12p35/IL-12p70 (B-T21) and IFNAR1 (EP899Y) were from Abcam. Phycoerythrine-conjugated antibodies to IL-12p40/IL-12p70 (C8.6), IL-10 (B-T10), CD203c (FR3-16A11) were from Miltenyi Biotec. Blocking antibody to HLA-DQ (SPVL3; 20 μg/mL) was from NeoMarkers. […]
Dendritic cell preparation and activation. […] Immature DCs were harvested on day 5 and matured using poly(I:C) at 5 μg/mL/10^6 DCs (Amersham) Secretion of IL-12p70, TNFα, IL-1β, IL-6, IL-8 and IL-10 was assessed on both immature and mature DCs using the Human Inflammatory Cytokine Cytometric Bead Array (BD Pharmingen).
We next evaluated whether DCs could be involved in the polarization of MMP-2-specific CD4^+ T cells.

IFNβ production by DCs = assay: IFNβ levels produced by poly(I:C)-matured DCs (ELISA); type: cell-based, human; settings: poly(I:C)-matured DCs pre-exposed, 16 h
Experimental: Immature DCs were incubated with MMP-2 (0.5 μg/mL or 5 μg/mL) and poly(I:C)-matured 1 h later. IL-12 levels were measured 16 h later. (A) Results are represented as a percentage of IL-12p70 levels, measured by CBA, produced when DCs were incubated with poly(I:C) only (n=11). (B) For intracellular staining of IL-12p35 and IL-12p40 chains, Brefeldin A was added 4 h after poly(I:C) activation and cells were stained after an additional 12 h incubation. Numbers in the upper right quadrants are the percentages of each population for a representative donor (n=3). (C,D) Immature DCs were incubated with MMP-2 for 1 h (5 μg/mL) before poly(I:C) maturation. Intracellular staining of phosphorylated (Y701) STAT1 (P-STAT1) was performed 3 h later. […] IFNβ levels were measured by ELISA 16 h later. […] IFNAR1 protein expression was detected the next day by Western blot analysis using a rabbit monoclonal antibody. […]
Enzyme-linked immunosorbent assay Activation of T cell clones (10,000 cells/100 μL/well), polyclonal T cell populations (100,000 cells/100 μL/well), DCs (50,000 cells/100 μL/well) and basophils (10,000 cells/100 μL/well) was determined by ELISA. IFNγ (BioSource), TNFα (BioSource), IL-4 (BioSource), TSLP (Quantikine; R&D Systems), IFNβ (VeriKine; PBL interferon source) and MCP-3 (DuoSet; R&D Systems) contents in supernatants were measured according to the manufacturer's instructions.

B1: active MMP-2: Purified human MMP-2 (mixture of the proenzyme (50%) and the active form (50%)) purchased from Biomol (protein, listed as Homo sapiens)
chain: MEALMARGALTGPLRALCLLGCLLSHAAAAPSPIIKFPGDVAPKTDKELAVQYLNTFYGCPKESCNLFVLKDTLKKMQKFFGLPQTGDLDQNTIETMRKPRCGNPDVANYNFFPRKPKWDKNQITYRIIGYTPDLDPETVDDAFARAFQVWSDVTPLRFSRIHDGEADIMINFGRWEHGDGYPFDGKDGLLAHAFAPGTGVGGDSHFDDDELWTLGEGQVVRVKYGNADGEYCKFPFLFNGKEYNSCTDTGRSDGFLWCSTTYNFEKDGKYGFCPHEALFTMGGNAEGQPCKFPFRFQGTSYDSCTTEGRTDGYRWCGTTEDYDRDKKYGFCPETAMSTVGGNSEGAPCVFPFTFLGNKYESCTSAGRSDGKMWCATTANYDDDRKWGFCPDQGYSLFLVAAHEFGHAMGLEHSQDPGALMAPIYTYTKNFRLSQDDIKGIQELYGASPDIDLGTGPTPTLGPVTPEICKQDIVFDGIAQIRGEIFFFKDRFIWRTVTPRDKPMGPLLVATFWPELPEKIDAVYEAPQEEKAVFFAGNEYWIYSASTLERGYPKPLTSLGLPPDVQRVDAAFNWSKNKKTYIFAGDKFWRYNEVKKKMDPGFPKLIADAWNAIPDNLDAVVDLQGGGHSYFFKGAYYLKLENQSLKSVKFGSIKSDWLGC
B1 was tested, and the “expression levels of maturation markers CD40, CD80, CD83, CD86, HLA-DR and CCR7” value [1] was “not significantly affected” and the IFNβ levels (IFNβ production by DCs) was “decreased levels”.
